The source of these data is patent US20140056907A1 (Regeneron, published 2014).

Assay [1] has as its target T1, human ASIC1 (human, UniProt P78348 1-528).
T1 construct: Ion channel subunit expressed on 3T3 (3T3/hASIC1) or HEK293 cells (HEK/hASIC1; HEK293 CL:1F10 transient); also called hASIC1; human ASIC1a
T1 sequence: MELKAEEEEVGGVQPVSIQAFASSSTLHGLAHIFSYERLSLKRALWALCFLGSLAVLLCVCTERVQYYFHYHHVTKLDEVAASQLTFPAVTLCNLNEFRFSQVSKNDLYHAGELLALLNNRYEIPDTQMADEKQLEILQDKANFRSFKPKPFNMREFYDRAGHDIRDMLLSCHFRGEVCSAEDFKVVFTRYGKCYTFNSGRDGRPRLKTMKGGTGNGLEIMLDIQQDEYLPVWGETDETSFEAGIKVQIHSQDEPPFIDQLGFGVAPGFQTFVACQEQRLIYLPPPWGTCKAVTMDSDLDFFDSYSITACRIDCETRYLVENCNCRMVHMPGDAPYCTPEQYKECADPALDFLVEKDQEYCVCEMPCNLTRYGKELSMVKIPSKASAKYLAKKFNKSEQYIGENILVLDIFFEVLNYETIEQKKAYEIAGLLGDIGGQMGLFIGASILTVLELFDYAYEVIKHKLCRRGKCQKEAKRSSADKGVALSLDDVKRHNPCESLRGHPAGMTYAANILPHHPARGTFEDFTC
Briefly: FACS titration, 3T3/hASIC1 cells.

In assay [2] the target is T1, human ASIC1. The assay can be described thus: cell-based or functional assay.
Assay [3] addresses T1, human ASIC1. The assay can be described thus: cell-based or functional assay. The source holds these as a separate data set.
For assay [4], the target named is T2, human ASIC1/ASIC3 channels (co-expressed human ASIC1a and human ASIC3) (human, UniProt Q9UHC3 1-531).
T2 construct: whole, on cells; 3T3 cells co-expressing both subunits; also called 3T3/hASIC1/3; 3T3-hASIC1/ASIC3
T2 sequence 1: T1 sequence
T2 sequence 2: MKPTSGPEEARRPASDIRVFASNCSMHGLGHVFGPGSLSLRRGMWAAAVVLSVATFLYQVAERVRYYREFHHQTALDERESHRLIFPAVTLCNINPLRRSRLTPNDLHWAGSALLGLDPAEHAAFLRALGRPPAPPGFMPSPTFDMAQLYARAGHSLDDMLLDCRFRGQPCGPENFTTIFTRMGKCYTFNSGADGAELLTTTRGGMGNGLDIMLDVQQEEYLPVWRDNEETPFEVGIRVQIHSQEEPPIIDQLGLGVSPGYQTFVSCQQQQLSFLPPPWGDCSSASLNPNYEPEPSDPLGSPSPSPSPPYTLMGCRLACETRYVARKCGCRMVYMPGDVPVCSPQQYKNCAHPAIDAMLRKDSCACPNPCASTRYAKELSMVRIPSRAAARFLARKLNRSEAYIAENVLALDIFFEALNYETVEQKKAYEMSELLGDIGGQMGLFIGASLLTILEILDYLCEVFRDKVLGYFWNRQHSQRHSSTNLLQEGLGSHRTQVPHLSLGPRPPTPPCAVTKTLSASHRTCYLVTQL
Briefly: FACS, 3T3/hASIC1/3 cells, 10 nM antibody. The source says: For these experiments, four cell lines were constructed: (a) a mouse fibroblast 3T3 cell line stably transfected to overexpress full length human ASIC3 (3T3/hASIC3; amino acids 1-531 of NCBI accession number NP_{—}004760.1), (b) a 3T3 cell line stably transfected to co-express full length human ASIC1a and human ASIC3 (3T3/hASIC1/3; amino acids 1-528 of NCBI accession number NP_{—}001086.2 and amino acids 1-531 of NCBI accession number NP_{—}004760.1), (c) […] a stably transfected 3T3 cell line expressing the full-length mouse ASIC3 channel (3T3/mASIC3; amino acids 1-530 of NCBI accession number NP_{—}892045.2), and (d) a 3T3 cell line stably transfected to co-express full length mouse ASIC1a and mouse ASIC3 (3T3/mASIC1/3; amino acids 1-526 of NCBI accession number NP_{—}033727 and amino acids 1-530 of NCBI accession number NP_{—}892045.2). Antibody binding was determined using flow cytometry (FACS).
To perform the FACS binding experiments, adherent cells were collected with cold Millipore Accutase 3-5 minutes, spun and resuspended in ice-cold FACS buffer (PBS, 2% HI-FBS and 0.09% Na-azide). Anti-ASIC1 antibody at final concentrations of 10 nM was added for 20-30 minutes on ice. Cells were washed with 900 μL ice-cold FACS buffer, spun, and resuspended in 100 μL ice-cold FACS buffer. A secondary antibody which recognizes human Fc (Jackson Immuno Research, #109-136-098) and is conjugated to allophycocyanin, was then added to the cell mixture at a final concentration of 2.5 ug/mL. After incubating for 20 minutes on ice, the cells were washed and resuspended in FACS buffer, then sorted and analyzed on a flow cytometer (FACSCanto II, BD Biosciences, San Jose, Calif.) to determine relative binding by the candidate antibodies to the tested cell lines. Histograms of cells stained with anti-ASIC1 antibodies were compared with those of cells stained with secondary antibody alone. Percentage of ASIC1 signal over secondary antibody alone was calculated using FlowJo software (Tree Star, Ashland, Oreg.).

A value given as a limit tells only on which side of the number the result lay.

A word on the EC50: it is the concentration giving half of the maximal effect.

B1: H3M7102N (antibody, V domains shown)
VH: EVQLLASGGGLVQPGGSLRLSCAASGFTFSSFAMSWVRQAPGKGLEWVSGISGSGGSTYYADSVKGRFTISRDNSKNTLYLQMNSLRAEDTAAYYCAKEAYKWQPWGQGIRVTVSS
VL: DIQMTQSPSTLSASVGDRVSITCRASQSISSWLAWYQQKPGKAPKLLIYKASNLDSGVPSRFSGSGSGTDFTLTISSLQPDDFATYYCQQYNSYSYTFGQGTKLEIK
notes: Chimeric: human variable, mouse constant domains; H3M prefix marks the Fc, isotype not spelled out
As to B1, in the assay with human ASIC1 [1], the EC50 stood at 5.4 nM. Also, in the assay with human ASIC1 [2], the “Current inhibition (%) at 100 nM antibody, Q-Patch, pH 6.0” value was determined as 100%. Further, the “apparent IC50, human ASIC1 current, Q-Patch” value in the assay with human ASIC1 [3] is at most 10 nM. For the same molecule, in assay [4], the binding result is recorded as “binds”.

B2: H3M6726N (antibody, V domains shown)
VH: EVQLLESGGVLVQPGGSLRLSCAASGFNFNNYDMSWVRQAPGKGLEWVSVISASGRNTYYADSVKGRFTISRDNSKISLYLQMNSLRPEDTAVYYCAKDHLVHYYYGMDVWGQGTTVTVSS
VL: DIMMTQSPLSLSVTPGEPASISCRSSQSLLHSNGYNYLDWYLQKSGQSPHLLIYLGSNRASGVPDRFSGSGSGTDFTLKISRVEAEDGGVYYCMQALQTPRTFGQGTKVEIK
notes: as for B1
As to B2, a half-maximal response with human ASIC1 [1] (EC50) required 2.6 nM. In addition, the “Current inhibition (%) at 100 nM antibody, Q-Patch, pH 6.0” value with human ASIC1 [2] amounted to 85%. Further, the “apparent IC50, human ASIC1 current, Q-Patch” value in the assay with human ASIC1 [3] is over 10 nM. The binding result in assay [4] is given as “binds”.
